# Test results from patent publication US20050154189A1 (MAXYGEN, published 2005).
# Biological target: T1, Soluble CTLA-4-Ig (human, UniProt P16410 36-161, FITC-conjugated in the two-colour FACS assays; unlabelled and detected with FITC goat anti-human IgG in the concentration-dependent assay)
# T1 construct: extracellular domain; Bought from R&D Systems; also called sCTLA-4-Ig; CTLA-4-Ig Fc; not shown: Fc portion of human IgG1
# Assay: two-colour FACS profile on transfected cells; score of preference for CTLA-4-Ig over CD28-Ig vs WT hB7-1
# T1 sequence (P16410 36-161): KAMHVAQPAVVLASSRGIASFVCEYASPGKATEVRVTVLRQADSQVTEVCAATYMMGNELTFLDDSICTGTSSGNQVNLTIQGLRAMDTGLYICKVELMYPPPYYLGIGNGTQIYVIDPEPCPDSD
row,Binder,Binding Score
1,Round 2 CTLA4 A-H3-6 (ligand) GISQVTKSVKEMAALSCDYNISIDELARMRIYWQKDQQMVLSIISGQVEVWPEYKNRTFPDIINNLSLMILALRLSDKGTYTCVVQKNENGSFRREHLTSVTLSIRADFPVPSINDLGNPSPNIRRLICSTSGGFPRPHLYWLENGEELNATNTTLSQDPETKLYMISSELDFNMTSNHSFLCLVKYGDLTVSQTFYWQESKPTPSANQHLTWTIIIPVSAFGISVIIAVILTCLTCRNAAIRRQRRENEVEMQSCSQSP,1
2,"Round 2 CTLA4BP-5x4-12c (ligand, Full-length clone on transiently or stably transfected 293 cells; The end 288 is the end of the entry as counted; also called R2 CTLA-4BP 5x4-12c; clone 12c) VIHVTKEVKEVATLSCGHNVSVEELAQTRIHWQKEKKMVLTMMSGDMNIWPEYKNRTIFDITNNLSIVILALRPSDEGTYECVVLKYEKDAFKREHLAEVMLSVKADFPTPSISDFEIPPSNIRRIICSTSGGFPEPHLFWLENGEELNAINTTVSQDPETELYTVSSKLDFNMTTNHSFMCLIKYGHLRVNQTFNWNTPKQEHFPDNLLPSWAITLISANGIFVICCLTYRFAPRCRERKSNETLRRESVRPV",2
3,Round 2 CTLA4BP-5x5-2e (ligand) VIHVTKEVKEVATLSCGLNVSVEELAQTRIHWQKEKKMVLTMMSGDMNIWPEYKNRTIFDITNNLSIVILALRPSDEGTYECVVLKYEKDAFKREHLAEVMLSVKADFPTPSISDFEIPPSNIRRIICSTSGGFPEPHLSWLENGEELNAINTTVSQDPETELYAVSSKLDFNMTTNHSFMCLIKYGHLRVNQTFNWNTPKQEHFPDNLLPSWAITLISVNGIFVICCLTYCFAPRCRERRRNETLRRESVRPV,2
4,Round 2 CTLA4BP-5x6-9d (ligand) VIHVTKEVKEVATLSCGHNVSVEELAQTRIHWQKEKKMVLTMMSGDMNIWPEYKNRTIFDITNNLSIVILALRPSDEGTYECVVLKYEKDAFKREHLAEVMLSVKADFPTPSISDFEIPTSNIRRIICSTSGGFPEPHLSWLENGEELNAINTTVSQDPETELYTVSSKLDFNMTANHSFVCLIKYGHLRVNQTFNWNTPKQEHFPDNLLPSWAITLISVNGIFVICCLTYCFAPRCRERRRNERLRRESVRPV,2
5,Round 2 CTLA4BP-5x9-12c (ligand) VIHVTKEVKEVATLSCGHNVSVEELAQTRIHWQKEKKMVLTMMSGDMNIWPEYKNRTIFDITNNLSIVILALRPSDEGTYECVVLKYEKDAFKREHLAEVMLSVKADFPTPSITDFEIPPSNIRRIICSTSGGFPEPHLSWLENGEELNAINTTASQDPETELYTVSSKLDFNMTTNHSFMCLIKYGHLRVNQTFNWNTPKQEHFPDNLLPSWAITLISVNGIFVICCLTYCFAPRCRERKSNERLRRESVRPV,2
6,Round 2 CTLA4 A-B4-6 (ligand) ITPKSVTKRVKETVMLSCDYNTSTEELTSLRIYWQKDSKMVLAILPGKVQVWPEYKNRTITDMNDNPRIVILALRLSDKGTYTCVVQKNENGSFRREHLTSVTLSIRADFPVPTINDLGNPSPNIRRLICSTSGGFPRPHLYWLENGEELNATNTTLSQDPETKLYMISSELDFNMTSNHSFLCLVKYGDLTVSQTFYWQESKPTPSANQHLTWTIIIPVSAFGISVIIAVILTCLTCRNAAIRRQRRENEVEMQSCSQSP,1
7,Round 2 CTLA4BP 2x1-c9 (ligand) VIHVTKEVKEVATLSCGHNVSAEELAQTRIYWQKEKKMVLTMMSGDMNIWPEYKNRTIFDITNNLSIVILALRPSDEGTYECVVLEYEKDAFKREHLAEVMLSVKADFPTPSITDFEIPTSNIRRIICSTSGGFPEPRLAWMEDGEELNAISTTASQDPETELYTVSSKLDFNMTTNHSFMCLIKYGHLRVNQTFNWNTPKQEHFPDNLLPSWAITLISVNGIFVICCLTHCFAPRCRERRRNERLRRESVCPV,1
8,Round 2 CTLA4BP 2x4-g9 (ligand) VIHVTKEVKEVATLSCGHNVSVEELAQTRIYWQKDKKMVLTMMSGDMNIWPEYKNQTIFDITNNLSIVILALRPSDEGTYECVVLKYEKDAFKQEHLAEVMLSVKADFPTPSISDFEIPPSNIRRIICSTSGGFPEPRLAWMEDGEELNAISTTVSQDPGTELCTVSSKLDFNMTTNHSFMCLIRYGHLRVNQTFNWNTPKQEHFPDNLLPSWAITLISVKGIFVICCLTYCFAPRGRERKSNGRLRRESVHPV,1

# The remaining lines, values ahead:
row,Binding Score,Binder
1,0,Round 2 CTLA4BP 2x3-h2 (ligand) VIHVTKEVKEVATLSCGHNVSVEELAQTRIYWQKEKKMVLTMMSGDMNIWPEYKNRTIFDITNNLSIVILALRPSDEGTYECVVLKYEKDAFKREHLAEVMLSVKADFPTPSISDFEIPPSNIRRIICSTPGGFPEPRLAWMEDGEELNAISTTVSQDPGTELYAVSSKLDFNMTTNHSFMCLIKYGHLRVNQTFNWNTTKQEHFPDNLLPSWAITLISVKGIFVICCLTYCFAPRWRERKSNERLRRESVRPV
2,2,Round 2 CTLA4BP-5x5-6e (ligand) VIHVTKEVKEVATLSCGHNVSVEELAQTRIHWQKEKKMVLTMMSGDMNIWPEYKNRTIFDITNNLSIVILALRPSDEGTYECVVLKYEKDAFKREHLAEVMLSVKADFPTPSITDFEIPPSNIRRIICSTSGGFPEPHLSWLENGEELNAISTTVSQDPETELYTVSSKLDFNMTTNHSFMCLIKYGHLRVNQTFNWNTTKQEHFPDNLLPSWAITLISANGIFVICCLTHCFAPRCRERKRNERLRRESVRPV
3,2,Round 2 CTLA4BP-5x8-1f (ligand) VIHVTKEVKEVATLSCGHNVSVEELAQTRIHWQKEKKMVLTMMSGDMNIWPEYKNRTIFDITNNLSIVILALRPSDEGTYECVVLKYEKDAFKREHLAEVMLSVKADFPTPSITDFEIPPSNIRRIICSASGGFPEPHLFWLENGEELNAINTTVSQDPETELYAVSSKLDFNMTTNHSFMCLIRYGHLRVNQTFNWNTPKQEHFPDNLLPSWAITLISVNGIFVICCLTYCFAPRCRERKSNERLRRESVRPV
4,1,Round 2 CTLA4 A-E2-6 (ligand) ITPKSVTKRVKETVMLSCDYNTSTEELTSLRIYWQKDSKMVLAILPGKVQVWPEYKNRTITDMNDNPRIVILALRLSDSGTYTCVVQKNENGSFRREHLTSVRLMIRADFPVPTINDLGNPSPNIRRLICSTSGGFPRPHLYWLENGEELNATNTTLPQDPETKLYMISSELDFNMTSNHSFLCLVKYGDLTVSQTFYWQESKPTPSANQHLTWTIIIPVSAFGISVIIAVILTCLTCRNAAIRRQRRENEVEMQSCSQSP
5,1,Round 2 CTLA4BP 2x1-e2 (ligand) VIHVTKEVKEVATLSCGHNVSDEELAQTRIHWQKEKKMVLTMMSGDMNIWPEYKNRTIFDITNNLSIVILALRPSDEGTYECVVLKYEKDAFKREHLAEVTLSVKADFPTPSISDFEIPPSNIRRIICSTSGGFPEPHLSWLENGEELNAINTTVSQDPGTELYTVSSKLDFNMTTNHSFMCLIKYGHLRVNQTFNWNTPKQEHFPDNLLPSAITLISANGIFVICCLTYCFAPRCRERRRNERLRRESIHPV
6,1,Round 2 CTLA4BP 2x2-f3 (ligand) VIYVTKEVKEVATLSCGHNVSVEELAQTRIYWQKEKKMVLIMMSGDMNIWPEYKNRTIFDITNNLSIVILALRPSDEGTECVVLKYEKDAFKREHLAEVTLSVKADFPTPSISDFEIPPSNIRRIICSTSGGFPEPHLSWLENGEELNAINTTVSQDPGTELYTVSSKLDFNMTTNHSFMCLIKYGHLRVNQTFNWNTPKQEHFPDNLLPSWAITLISVNGIFVICCLTYCFAPRCRERRRNERLRRESVCPV
